Experimental data as given in the supplement of paper PMC9170038.

System: K4 kissing-loop RNA reporter
Assay: apparent KD of K4 kissing-loop reporter; higher = weaker reporter binding
Conditions: Eterna round: R107
Procedure: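 RNA-MaP round R107: designed RNA switches with theophylline, tryptophan, arginine or FMN aptamers are transcribed on-chip within common flanks. They are titrated with a labelled K4 kissing-loop RNA reporter in RNA-MaP buffer (100 mM Tris pH 7.5, 80 mM KCl, 4 mM MgCl2), without ligand or with the indicated ligand. Median apparent KD per design.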

[1] = input ligand: theophylline 20 uM
[2] = input ligand: tryptophan 2.4 mM
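Further: bound reporter read as fluorescence of individual clusters on recovered sequencing chips by microscopy, with normalized cluster intensities fitted with a binding model.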

| Sequence | apparent KD of K4 kissing-loop reporter (input ligand: FMN 200 uM) | apparent KD of K4 kissing-loop reporter (input ligand: arginine 13.2 mM) | apparent KD of K4 kissing-loop reporter (input ligand: none) | apparent KD of K4 kissing-loop reporter [1] | apparent KD of K4 kissing-loop reporter [2] |
| --- | --- | --- | --- | --- | --- |
| UGGAGUUGACGAAAAGUCAACUCCUGAGAUACCAGUGACGAAGGUCACCCUUGGCAGCUCACUGCUAGUGAUGUUGGAAGAUAAA [whbob_SS_Theo_A_w48] | 1390 nM | 276 nM | 913 nM | 2350 nM | 792 nM |
| UGGAGUUGACGAAAAGUCAACUCCUGGGAAGGAGCGGACGAAAGUCCAGGUAGGUCGCCCACUACCAGUGAUGUUGGUACUUCAA | 241 nM | 274 nM | 271 nM | 254 nM | 209 nM |
| UGGAUAUAGUGAUGUUAUAUAGAGAGGGAUACCAGUUUAGAGAAGAACCCUUGGCAGCCUAAAGAAGUAUCAUUAGAGAAGAAUG [ExTheophyl.An] | 370 nM | 229 nM | 253 nM | 324 nM | 241 nM |
| UGGCGGACGAUCCGGAGUGAUGUUCCGGAUACCAGCAGAAGAGCCUGCCCUUGGCAGCCGUGCGACGCUGGGAGAGUCCGGCGUC [Requered] | 104 nM | 88 nM | 104 nM | 107 nM | 99.7 nM |
| UGGGAUGGGCGAGGAUAUGGUGAGGUGGCGGUUGUUAGUGAUGUUGGUGAUGCUAGUGAUGUUUGUCCAGAAGGCGCGGGAUUUU [BDazzled] | 218 nM | 104 nM | 171 nM | 179 nM | 168 nM |
| UGGGAUGUUAAAGGAUAUAGAAAGUGAUAUUAGAAAGUGAGUGAUGUUGAUGUAAGUGAUGAUAUGUUAGAAGGUUAACAAAACG [abcd] | 431 nM | 363 nM | 499 nM | 472 nM | 379 nM |
| UGGGUGUAGUGAUGUUAUAUAGAGAGUGAUACCAGCUUAGAGAGAAGCCCUUGGCAGCAUAGAAGAGUAUCAUUGGAGGAGGAGG [ExTheophyl.Ay] | 680 nM | 527 nM | 609 nM | 668 nM | 401 nM |
| UGGGUUGGAAGUGAUGUUUCUCUAAGUGAUACCAGACAAAAGAAAGUCCCUUGGCAGCACAAUGAUGCCAAGGAAACGGCAUGAU [#16 K4 Theophylline A Same State] | 229 nM | 244 nM | 260 nM | 250 nM | 195 nM |
| UGUAAGCGCGUAGAUACCAGCAGACGAGUGAUGUUCGAGAGAUUAAGGAAAAGAAAGUAAUGCCCUUGGCAGCUAAUCAUAAGCG [whbob_Ex_Theo_B_sa94] | 248 nM | 335 nM | 264 nM | 301 nM | 174 nM |
| UGUACCGAGUCAGGAUAUAGCGUCGAAAGACGAAUCCUAGUGAUGUUAGGGAUCUGCGAAAGCAGUCUAGAAGGGACUUGGUACU [FmnBS 26 A19+U68] | 275 nM | 278 nM | 295 nM | 293 nM | 291 nM |
| UGUAUGUGAUUUGAUACCAGACCAGCUGGUGGUAUAUGAGUGAUGUUCAUGUUGGUGUGGGUCCCUUGGCAGCAAAUCGCAUACU [KL-SSTheoB9] | 242 nM | 161 nM | 237 nM | 164 nM | 183 nM |
| UGUAUGUGAUUUGAUACCAGACCAGCUGGUGUUAGAUGAGUGAUGUUGAUCUAGGGUUGGGUCCCUUGGCAGCAAAUCGCAUACU [KL-SSTheoB22] | 593 nM | 391 nM | 557 nM | 435 nM | 463 nM |
| UGUAUGUGAUUUGAUACCAGACCAUCUUGUGAGAAGUGAGUGAUGUUUAUUUUGGUUUGGGUCCCUUGGCAGCAAAUCGCAUACU [KL-SSTheoB23] | 777 nM | 560 nM | 826 nM | 619 nM | 738 nM |
| UGUCAUUGGUCGGCCGCCACUAAAUAAAAGAGUGAUGUUCUUAAGACGGAUCGAAAGAUCUGUCAUAGGACCGGGACCGAUGACU [TrypBS 21 #SwitchBubble #StaticStem] | 1200 nM | 891 nM | 1080 nM | 888 nM | 667 nM |
| UGUCAUUGGUCGGCCGCCACUAGGACCGGGUAUAACCUAGUGAUGUUAGUGAGUACGGCCGCCACUAGGACCGGGACCGAUGACU [KL-SSTryp-B120 #DoubleAptamer] | 531 nM | 319 nM | 857 nM | 572 nM | 91.9 nM |
| UGUCAUUGGUCGGCCGCCACUCCAUAACGAGUGAUGUUCUAAAAGACGGAUCGAAAGAUCUGUCGGAGGACCGGGACCGAUGACU [FiskerMod 6 - Jieux - Same State - Tryptophan B] | 558 nM | 308 nM | 622 nM | 274 nM | 1140 nM |
